Test results taken from patent US20040132130.

System: Ac-Ala-Ala-Pro-Thr(Man)-Pro-Val-Ala-Ala-Pro-NH2

Sequence of His-Xpress-sOMGnT(L) (chain, as listed by the source): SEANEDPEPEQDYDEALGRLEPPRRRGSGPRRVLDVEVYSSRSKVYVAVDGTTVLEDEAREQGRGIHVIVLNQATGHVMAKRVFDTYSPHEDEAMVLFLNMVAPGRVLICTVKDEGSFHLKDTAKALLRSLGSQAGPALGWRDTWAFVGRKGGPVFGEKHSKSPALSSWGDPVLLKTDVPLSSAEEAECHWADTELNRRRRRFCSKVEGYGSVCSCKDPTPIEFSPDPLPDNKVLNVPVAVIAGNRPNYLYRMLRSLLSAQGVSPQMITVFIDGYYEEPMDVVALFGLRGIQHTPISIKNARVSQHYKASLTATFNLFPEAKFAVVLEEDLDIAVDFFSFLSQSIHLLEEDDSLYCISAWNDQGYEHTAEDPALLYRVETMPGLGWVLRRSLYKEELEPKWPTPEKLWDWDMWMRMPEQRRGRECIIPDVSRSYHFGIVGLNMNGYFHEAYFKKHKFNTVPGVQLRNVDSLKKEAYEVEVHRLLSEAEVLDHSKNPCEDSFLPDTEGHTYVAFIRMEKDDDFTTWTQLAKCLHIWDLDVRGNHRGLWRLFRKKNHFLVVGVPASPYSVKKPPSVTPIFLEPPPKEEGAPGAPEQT

Substance: His-Xpress-sOMGnT(L)
- Km value: 1850 µM
- OMGnT activity (pmol/hr/mg protein) (pmol/hr/mg protein): 15
- OMGnT relative activity (%): 100%
